Molecular target: asialofetuin (Sigma Type-I) (Bos taurus (Bovine)) (UniProt P12763)

Question: For “Triton extract of uninfected RK13 cells (pool or library)”, which […] (fluorescence assay, […] (mU/mg total protein) is on record?
Answer: 0.036

— US6136579
